Tests used:
[1] = molecular target: T1, rat LDL receptor (YB2/0 cells) (rat, UniProt P35952 22-879); assay: flow cytometry on YB2/0 cells, antibody at 30 µg/mL
T1 construct: whole, on cells
Description: (§1) The cross-reactivity of the anti-LDL-R antibodies was tested in the mouse (C2C12 cells), in the rat (YB2/0 cells), and in the hamster (CHO-K1 cells). The anti-LDL-R 12G4 antibodies were incubated at a final concentration of 30 μg/mL for 3 hours at 4° C. on C2C12, CHO-K1, and YB2/0 cells that had been cultured beforehand under LPDS conditions for 24 hours. The commercial 1C6 (anti-SREBP2, IgG) and C7 (anti-LDL-R, IgG2b) antibodies were used as negative and positive control antibodies, respectively. The detection of the bond was performed using an anti-IgG-PE antibody. The results were expressed as the percentage of fluorescent cells (FIG. 6A) and as mean fluorescence (FIG. 6B).

[2] = molecular target: T2, mouse LDL receptor (C2C12 cells) (mouse, UniProt P35951 22-862); assay: flow cytometry on C2C12 cells, antibody at 30 µg/mL
T2 construct: whole, on cells; also called murine LDL-R
T2 sequence (P35951 22-862): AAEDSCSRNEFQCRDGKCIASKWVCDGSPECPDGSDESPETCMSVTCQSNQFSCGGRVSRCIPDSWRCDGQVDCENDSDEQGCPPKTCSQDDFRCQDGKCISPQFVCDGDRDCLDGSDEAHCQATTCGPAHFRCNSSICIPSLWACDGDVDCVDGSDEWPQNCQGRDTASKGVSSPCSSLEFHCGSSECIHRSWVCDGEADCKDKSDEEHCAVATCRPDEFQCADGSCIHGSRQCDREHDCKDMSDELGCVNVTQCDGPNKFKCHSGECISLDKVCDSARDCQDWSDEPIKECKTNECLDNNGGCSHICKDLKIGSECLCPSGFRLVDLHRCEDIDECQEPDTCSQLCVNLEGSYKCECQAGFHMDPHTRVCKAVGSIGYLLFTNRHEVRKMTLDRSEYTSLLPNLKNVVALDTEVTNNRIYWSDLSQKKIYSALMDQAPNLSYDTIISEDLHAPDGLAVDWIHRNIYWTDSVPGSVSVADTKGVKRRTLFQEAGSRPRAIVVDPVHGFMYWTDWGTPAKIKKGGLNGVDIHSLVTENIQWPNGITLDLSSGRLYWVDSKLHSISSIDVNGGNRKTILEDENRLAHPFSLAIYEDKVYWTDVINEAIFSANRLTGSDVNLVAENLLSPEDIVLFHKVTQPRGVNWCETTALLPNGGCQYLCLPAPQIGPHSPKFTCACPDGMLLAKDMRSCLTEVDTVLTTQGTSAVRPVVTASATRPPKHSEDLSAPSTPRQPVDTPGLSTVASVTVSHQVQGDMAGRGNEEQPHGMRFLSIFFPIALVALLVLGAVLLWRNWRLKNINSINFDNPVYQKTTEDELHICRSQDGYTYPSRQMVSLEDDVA
Description: as §1

[3] = molecular target: T3, hamster LDL receptor (CHO-K1 cells) (hamster, UniProt P35950 22-862); assay: flow cytometry on CHO-K1 cells, antibody at 30 µg/mL
T3 construct: whole, on cells
T3 sequence (P35950 22-862): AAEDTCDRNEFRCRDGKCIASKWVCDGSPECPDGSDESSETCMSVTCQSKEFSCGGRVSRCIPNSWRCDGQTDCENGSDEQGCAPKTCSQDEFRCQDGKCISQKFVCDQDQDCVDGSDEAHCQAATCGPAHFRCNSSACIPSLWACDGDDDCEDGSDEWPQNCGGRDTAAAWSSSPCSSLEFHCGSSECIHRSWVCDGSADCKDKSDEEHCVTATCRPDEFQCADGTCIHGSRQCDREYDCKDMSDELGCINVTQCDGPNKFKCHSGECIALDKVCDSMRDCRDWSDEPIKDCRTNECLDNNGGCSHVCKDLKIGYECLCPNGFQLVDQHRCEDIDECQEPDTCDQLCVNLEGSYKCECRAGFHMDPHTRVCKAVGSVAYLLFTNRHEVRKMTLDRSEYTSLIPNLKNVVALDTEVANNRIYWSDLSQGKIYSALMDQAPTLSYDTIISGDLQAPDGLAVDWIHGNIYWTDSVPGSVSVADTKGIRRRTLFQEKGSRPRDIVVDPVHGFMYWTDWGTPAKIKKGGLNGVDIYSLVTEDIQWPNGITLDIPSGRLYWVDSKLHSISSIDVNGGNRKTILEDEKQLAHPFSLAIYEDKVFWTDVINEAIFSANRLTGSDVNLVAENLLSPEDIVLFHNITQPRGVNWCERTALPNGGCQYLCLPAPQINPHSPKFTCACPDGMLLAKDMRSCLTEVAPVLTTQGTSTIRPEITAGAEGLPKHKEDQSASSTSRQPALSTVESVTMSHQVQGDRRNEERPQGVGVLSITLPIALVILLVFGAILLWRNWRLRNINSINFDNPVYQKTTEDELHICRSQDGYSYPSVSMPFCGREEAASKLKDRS
Description: as §1

Measured: binding result

T1 sequence (P35952 22-879): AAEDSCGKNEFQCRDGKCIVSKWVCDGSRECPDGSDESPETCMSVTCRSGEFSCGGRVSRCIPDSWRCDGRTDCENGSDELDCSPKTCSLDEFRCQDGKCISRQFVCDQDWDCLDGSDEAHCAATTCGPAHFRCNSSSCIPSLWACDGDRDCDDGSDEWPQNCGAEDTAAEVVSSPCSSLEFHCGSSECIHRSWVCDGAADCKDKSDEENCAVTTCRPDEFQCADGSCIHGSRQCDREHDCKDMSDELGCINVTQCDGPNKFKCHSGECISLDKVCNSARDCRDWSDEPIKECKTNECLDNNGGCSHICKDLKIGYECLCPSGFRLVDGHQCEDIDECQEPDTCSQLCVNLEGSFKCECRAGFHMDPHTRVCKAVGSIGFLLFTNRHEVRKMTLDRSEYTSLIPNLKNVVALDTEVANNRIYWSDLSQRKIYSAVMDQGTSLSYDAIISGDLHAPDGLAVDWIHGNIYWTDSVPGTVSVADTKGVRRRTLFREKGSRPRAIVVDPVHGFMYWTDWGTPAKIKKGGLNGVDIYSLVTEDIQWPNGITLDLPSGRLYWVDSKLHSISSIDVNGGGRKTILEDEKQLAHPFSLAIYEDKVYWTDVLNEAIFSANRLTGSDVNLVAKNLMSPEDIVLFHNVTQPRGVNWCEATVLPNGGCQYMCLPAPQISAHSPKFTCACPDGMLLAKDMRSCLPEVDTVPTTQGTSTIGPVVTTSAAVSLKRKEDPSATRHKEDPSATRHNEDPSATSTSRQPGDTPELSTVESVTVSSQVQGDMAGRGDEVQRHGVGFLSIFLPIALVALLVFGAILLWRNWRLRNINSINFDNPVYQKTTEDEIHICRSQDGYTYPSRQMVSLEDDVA

B1: anti-LDL-R 12G4 antibody (antibody, mouse IgG1, V domains shown)
VH: QIQLVQSGPELKKPGETVKISCKASGYTFTKYGMNWVKQAPGKGLKWMGWINTNTGEPTYAEEFKGRFAFSLETSASTAFLQINNLKNEDTATYFCSRGGYYDSYWGQGTLVTVSA
VL: DIVMSQSPSSLAVSVGEKVTMSCKSSQSLLYSSSQKNYLAWYQQKPGQSPKVLIYWASTRESGVPDRFTGSGSGTDFTLTISSVKAEDLAVYYCQQYYTYRTFGGGTKLEIK
notes: Murine IgG1 kappa purified from ascites of hybridoma H12G4; also called anti-LDL-R 12G4 antibodies; monoclonal antibody produced by the H12G4 hybridoma (CNCM I-3487)
binds: [1] | [2] | [3]

— US20090175789A1 (LFB BIOTECHNOLOGIES, published 2009)
